Data: US20260199463A1 (published 2026)

Binder | Kd (msNec4) [nM] | Kd (huNec4) [nM]
NEC_S_11 (VHH) VHH: EVQLLESGGGLVQPGGSLRLSCAASGLTSSGYAMGWYRQAPGKERELVSSISSSGGLTHYADSVKGRFTISRDNSKNTLYLQMNSLKPEDTAVYYCDADIAYTGADYWGQGTQVTVSS | 38 | 302
NEC_M_46 (VHH) VHH: EVQLLESGGGLVQPGGSLRLSCAASGYTFSDYAMGWYRQAPGKERELVSSISGSGGSTRYADSVKGRFTISRDNSKNTLYLQMNSLKPEDTAVYYCAAVIRQPSTGFYEYWGQGTQVTVSS | 14 | 19
NEC_M_17 (VHH) VHH: EVQLLESGGGLVQPGGSLRLSCAASGFTYSGYAMGWYRQAPGKERELVSSISGSGTLTSYADSVKGRFTISRDNSKNTLYLQMNSLKPEDTAVYYCDVDIPVGDATTVGDYWGQGTQVTVSS | 11 | 10
NEC_M_5 (VHH) VHH: EVQLLESGGGLVQPGGSLRLSCAASGLSFSSYSMGWYRQAPGKEREFVSAISGSSGSTNYADSVKGRFTISRDNSKNTLYLQMNSLKPEDTAVYYCAAEHRVTTSGVFYDYWGQGTQVTVSS | 8060 | 28
NEC_M_8 (VHH) VHH: EVQLLESGGGLVQPGGSLRLSCAASGFTFSSYAMGWYRQAPGKEREFVSSISGSGGLTRYADSVKGRFTISRDNSKNTLYLQMNSLKPEDTAVYYCAVTTGYQGGVYDYWGQGTQVTVSS | 47 | 122
NEC_M_44 (VHH) VHH: EVQLLESGGGLVQPGGSLRLSCAASGRTLSSYAMGWYRQAPGKERELVSSISGSGGSTRYADSVKGRFTISRDNSKNTLYLQMNSLKPEDTAVYYCAVYILELAPGAEYWGQGTQVTVSS | 27 | 33
NEC_S_31 (VHH) VHH: EVQLLESGGGLVQPGGSLRLSCAASGFTYSSYAMGWYRQAPGKERELVSSISGSGGSTRYADSVKGRFTISRDNSKNTLYLQMNSLKPEDTAVYYCAVAIGVGDYWGQGTQVTVSS | 10 | 84
NEC_S_55 (VHH) VHH: EVQLLESGGGLVQPGGSLRLSCAASGFTLSSYAMGWYRQAPGKERELVSSISGSGGSTRYADSVKGRFTISRDNSKNTLYLQMNSLKPEDTAVYYCAAYIGGDYLGQGTQVTVSS | 28 | 81
